Experimental data: patent US7399869B2, “Fibroblast activation protein inhibitor compounds and methods” (Genentech, Inc., priority 2005, dated 2008)

Tests used:
[1] = substrate: CC(=O)NCC(=O)N1CCCC1C(=O)Nc1ccc2c(C(F)(F)F)c(CC(N)=O)c(=O)oc2c1; assay: Hydrolysis of C-terminal coumarin dipeptide substrates by DPP-4 (kinetic constants); type: biochemical; details: other: DPP-4, substrates with blocked N-termini, 23° C., pH 7.4, NC = no cleavage up to 1 mM substrate
Protocol: (§1) The relative cleavage rates by FAP and several dipeptidases of N-blocked (8) and unblocked (7) Gly-Pro dipeptide substrates were measured.
(§2) The cleavage (hydrolysis) rates of various C-terminal coumarin dipeptide substrates 7-16 by FAP and DPP-4 were measured (Tables 4 and 5). The amino-terminus of the substrates was unblocked and the amino acids were varied in Table 4. The amino-terminus of the substrates was blocked and the amino acids were varied in Table 5. To extend the results obtained with the dipeptide substrate library, kinetic parameters were determined for cleavage of the unblocked dipeptide substrates by FAP (Table 4). The catalytic efficiency (kcat/Km) for substrate cleavage was greatest with Ile-Pro-AFC, followed by Ala-Pro-, Gly-Pro- and Phe-Pro-AFC, consistent with the dipeptide substrate library results (FIG. 5). […] Kinetic constants for cleavage of Ala-Pro-AFC and Gly-Pro-AFC by DPP-4 were determined (Table 4). The catalytic efficiency for Ala-Pro-AFC hydrolysis was greater than that for Gly-Pro-AFC, and consistent with the dipeptide library.
(§3) Protease Assays—Protease activity was monitored continuously using a SpectraMax M2 microplate reader (Molecular Devices Corp., Sunnyvale Calif.) in the kinetic mode. Assays were conducted at 23° C. in 50 mM Tris (pH 7.4), 100 mM NaCl, 1 mM EDTA. The excitation/emission wavelengths for the different fluorogenic substrates were 360/460 nm (AMC), 400/505 nm (AFC), 340/425 nm (MNA), 340/510 nm (EDANS), and 337/425 nm (Abs). Standard curves of the appropriate fluorescent product versus concentration were used to convert relative fluorescence units to nmol of product produced. Substrates in the X-Pro-AMC library were used in rate assays at 5 μM final concentration. […] The kinetic parameters were calculated from Michaelis-Menten plots (V0 versus [S]) with nonlinear regression analysis using GraphPad software. kcat values were calculated under the assumption that each protease was 100% active.
(§4) When saturating amounts of substrate could not be achieved, catalytic efficiencies (kcat/Km) were determined under pseudo-first order conditions ([S]<<the estimated Km) and fit to the following equation: Ln[St/S0]=−kobst, where St is the concentration of substrate remaining at time t, S0 is the initial substrate concentration and kobs is the apparent first order substrate cleavage constant equal to (kcat/Km) times ET, the total enzyme concentration (Copeland, R. (2000) Enzymes, A Practical Introduction to Structure, Mechanism, and Data Analysis, 2nd Ed., John Wiley and Sons, Inc, New York). The linear relationship of Ln[St/S0] versus time allows calculation of kcat/Km by dividing the slope of the plot by ET.

[2] = substrate: NCC(=O)N1CCCC1C(=O)Nc1ccc2c(C(F)(F)F)c(CC(N)=O)c(=O)oc2c1; assay: as above; type: biochemical; details: other: DPP-4, substrates with unblocked N-termini, 23° C., pH 7.4
Protocol: as §1, §2, §3, §4

B1: DPP-4 (Homo sapiens) (protein)
chain: SRKTYTLTDYLKNTYRLKLYSLRWISDHEYLYKQENNILVFNAEYGNSSVFLENSTFDEFGHSINDYSISPDGQFILLEYNYVKQWRHSYTASYDIYDLNKRQLITEERIPNNTQWVTWSPVGHKLAYVWNNDIYVKIEPNLPSYRITWTGKEDIIYNGITDWVYEEEVFSAYSALWWSPNGTFLAYAQFNDTEVPLIEYSFYSDESLQYPKTVRVPYPKAGAVNPTVKFFVVNTDSLSSVTNATSIQITAPASMLIGDHYLCDVTWATQERISLQWLRRIQNYSVMDICDYDESSGRWNCLVARQHIEMSTTGWVGRFRPSEPHFTLDGNSFYKIISNEEGYRHICYFQIDKKDCTFITKGTWEVIGIEALTSDYLYYISNEYKGMPGGRNLYKIQLSDYTKVTCLSCELNPERCQYYSVSFSKEAKYYQLRCSGPGLPLYTLHSSVNDKGLRVLEDNSALDKMLQNVQMPSKKLDFIILNETKFWYQMILPPHFDKSKKYPLLLDVYAGPCSQKADTVFRLNWATYLASTENIIVASFDGRGSGYQGDKIMHAINRRLGTFEVEDQIEAARQFSKMGFVDNKRIAIWGWSYGGYVTSMVLGSGSGVFKCGIAVAPVSRWEYYDSVYTERYMGLPTPEDNLDHYRNSTVMSRAENFKQVEYLLIHGTADDNVHFQQSAQISKALVDVGVDFQAMWYTDEDHGIASSTAHQHIYTHMSHFIKQCFSLP
notes: DPP-4 (amino acids 39-766); FLAG (N); made in house; host or cells: 293 cells (secreted, purified from serum-free conditioned media)
kcat [1]: < 0.07 s⁻¹
kcat/Km [1]: 36 ± 3 M⁻¹ s⁻¹
Km [2]: 76 ± 10 µM
kcat [2]: 121 ± 5 s⁻¹
kcat/Km [2]: 1.6e+06 M⁻¹ s⁻¹
